Data as given in PMC7665200, “Mus81-Mms4 endonuclease is an Esc2-STUbL-Cullin8 mitotic substrate impacting on genome integrity” (Nature Communications, 2020).
One block for each binder: values may come before it.

Biological target: T1, GST-Esc2 (Saccharomyces cerevisiae, UniProt Q06340 1-456)
T1 construct: Esc2, Saccharomyces cerevisiae, full-length gene cloned into BamHI/SalI of pGEX-6P-2; pGEX-6P-2 should place GST at the N-terminus (surmised from the vector); also called recombinant glutathione S-transferase (GST)-Esc2; GST-tagged Esc2; source: E. coli BL21 (DE3), purified (glutathione-Sepharose 4B, eluted with reduced glutathione, dialysed)
T1 sequence (looked up): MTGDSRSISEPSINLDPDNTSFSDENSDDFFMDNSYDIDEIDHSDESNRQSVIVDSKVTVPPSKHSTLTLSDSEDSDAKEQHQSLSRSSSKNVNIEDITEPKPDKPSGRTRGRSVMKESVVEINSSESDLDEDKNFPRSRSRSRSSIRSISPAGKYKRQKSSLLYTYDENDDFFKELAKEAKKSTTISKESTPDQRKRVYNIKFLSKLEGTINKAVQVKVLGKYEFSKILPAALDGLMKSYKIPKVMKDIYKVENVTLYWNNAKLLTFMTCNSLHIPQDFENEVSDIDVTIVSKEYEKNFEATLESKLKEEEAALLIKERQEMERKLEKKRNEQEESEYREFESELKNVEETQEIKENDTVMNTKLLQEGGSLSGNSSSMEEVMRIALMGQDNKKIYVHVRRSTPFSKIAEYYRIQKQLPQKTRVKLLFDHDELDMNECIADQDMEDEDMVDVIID
Experiment: peptide or protein array; PEPperPRINT microarray of 15-aa peptides covering the entire Mms4 and Mus81 with 14-aa overlaps, printed in duplicate; purified GST-Esc2 in solution, detected with anti-GST DyLight680
Conditions: both partners purified

- binding result: binds
B1: Mus81 peptide EKGTKKRKTRKYIPK (peptide)
peptide: EKGTKKRKTRKYIPK
notes: 15-aa stretch of Mus81, S. cerevisiae; Immobilised on the array; It is printed as the 'consensus motif' of a response peak of overlapping 15-mers; source: synthetic peptide, printed on a peptide microarray (PEPperPRINT GmbH)

- binding result: binds
B2: Mms4 peptide RSKKSSQVGKLGIKK (peptide)
peptide: RSKKSSQVGKLGIKK
notes: 15-aa stretch of Mms4, S. cerevisiae; Immobilised on the array; It is printed as the 'consensus motif' of a response peak of overlapping 15-mers; source: synthetic peptide, printed on a peptide microarray (PEPperPRINT GmbH)
